Assay results published in patent US20150315569A1, “METHOD FOR SCREENING A NUCLEIC ACID-PROGRAMMED SMALL MOLECULE LIBRARY” (The Board of Trustees of the Leland Stanford Junior …, priority 2014, published 2015).

How the values were obtained:
protein kinase A = target: T1, protein kinase A (Mus musculus, UniProt P05132); test: Selection for protein kinase A substrates from the DNA-programmed peptide library; gene/peptide enrichment by Illumina sequencing; type: biochemical, murine; conditions: for LTFE: In (total fold enrichment) after four rounds: after four rounds of PKA substrate selection, kinase-treated vs control population; for Rank: position on list of peptides ranked by fold enrichment: calculated by summing reads over the 1296 genes encoding each peptide, peptide-DNA conjugates
T1 construct: purchased New England Biolabs P6000L
Experimental: Programmed library synthesis was carried out by a series of DNA-directed library splitting steps followed by chemical coupling steps. For the splitting steps, the ssDNA library was hybridized to an anticodon array overnight at 37° C. using a mesofluidic hybridization pump (see, e.g., Weisinger et al. (2012) PLoS ONE, 7, e28056). The anticodon array with bound DNA was then mounted into a plate adapter device which uses rubber gaskets to form an isolated liquid channel above and below each array feature. The adapter device was placed on top of a 384-well polypropylene filterplate loaded with 5 μl aliquots of DEAE sepharose resin. DNA was eluted from each feature of the anticodon array onto the DEAE resin in the corresponding well of the filterplate by application of a denaturing buffer (10 mM NaOH with 1 mM EDTA and 0.005% Triton X-100) followed by gentle centrifugation of the stack (140×g for 1 minute). The DEAE resin in the filter plate was then washed three times with 85 μl H2O and three times with 85 μl dry methanol. Peptide couplings were performed using EDC and HOAt in methanol and DMF (see, e.g., Halpin et al., (2004) PLoS Biology, 2, E174). Following the synthetic steps, the filterplate was placed on top of a 384-well polypropylene microtiter plate, and DNA was eluted from the DEAE resin by application of a high salt buffer (1.5 M NaCl, 50 mM NaOH, 1 mM EDTA, and 0.005% Triton X-100) followed by gentle centrifugation. The eluted DNA was pooled, concentrated and buffer exchanged into hybridization buffer using a centrifugal filter device with a 10,000 Da molecular weight cut-off (GE Healthcare). BSA and tRNA were added to 0.5 mg/ml each. The sample was diluted to 3 ml with hybridization buffer and applied to another anticodon array. Following the final step of the chemical synthesis, the eluted DNA was split by hybridization for 3 hours at 37° C. to a pair of anticodon columns derivatized with the VE001 and VE002 anticodon sequences. The two halves of the library were concentrated with n-butanol extractions, precipitated with isopropanol, and subjected to kinase-substrate/mock selections respectively.
Translated libraries were incubated in PKA buffer (NEB) overnight at 30° C. with 10,000 units of protein kinase A and 1 mM ATPγS. For the selection between the third and fourth generations, the incubation was shortened to 1 hour at 30° C. Mock selections were performed identically, with the enzyme replaced by a 50% glycerol solution. After incubation, the crude reactions were diluted 1.5-fold and adjusted to 100 mM NaOAc pH 5.2 and 25% dimethyl formamide. EZ-Link iodoacetyl-LC-biotin (Pierce Thermo Fisher Scientific, catalog #21333) was added to 600 μM. After 3 hours in the dark at 25° C., the enzyme-treated library was cleaned up by extraction with phenol: chloroform and n-butanol, and then precipitation with isopropanol. The library was resuspended in 27.5 μl bind buffer (10 mM Tris pH 7.4, 1 mM EDTA, 1 M NaCl), and 1.25 mg/ml tRNA and 0.25 mg/ml BSA were added. The library was then incubated with 15 μl of μMACS streptavidin microbeads (MiltenyiBiotec, 130-074-101) overnight at room temperature. The microbeads were purified and washed over MACS columns according to the manufacturer's instructions, and the purification process was repeated a second time. DNA was amplified directly off of the streptavidin beads by PCR.
25 pmol of amplified DNA was used as a template in a PCR reaction that appended Illumina adaptor sequences. The PCR product was quantified on an Agilent 2100 Bioanalyzer, and a 10 nM solution was submitted to the Stanford Functional Genomics Facility for sequencing using custom primers. Paired-end 150-bp reads were obtained on a MiSeqIllumina Sequencer.
The sequencing data were processed using scripts written in either AWK or MATLAB. […]

[1] = system: T2, Kemptide heptapeptide LRRASLG (SEQ ID NO: 10)
T2 sequence: LRRASLG

RMSF (SEQ ID NO: 7) = system: T3, RMSF (SEQ ID NO: 7)
T3 sequence: RMSF

RRMTV (SEQ ID NO: 6) = system: T4, RRMTV (SEQ ID NO: 6)
T4 sequence: RRMTV

RRFSV (SEQ ID NO: 4) = system: T5, RRFSV (SEQ ID NO: 4)
T5 sequence: RRFSV

RRASL (SEQ ID NO: 3) = system: T6, RRASL (SEQ ID NO: 3)
T6 sequence: RRASL

RRSF (SEQ ID NO: 8) = system: T7, RRSF (SEQ ID NO: 8)
T7 sequence: RRSF

RRSFV (SEQ ID NO: 2) = system: T8, RRSFV (SEQ ID NO: 2)
T8 sequence: RRSFV

RRMSV (SEQ ID NO: 5) = system: T9, RRMSV (SEQ ID NO: 5)
T9 sequence: RRMSV

RRMS (SEQ ID NO: 9) = system: T10, RRMS (SEQ ID NO: 9)
T10 sequence: RRMS

In the case of RMSF, the “LTFE: In (total fold enrichment) after four rounds” value (“LTFE: In (total fold enrichment)” for short) (protein kinase A) is reported as 7.6 and the “Rank: position on list of peptides ranked by fold enrichment” value (from here on “Rank: position … by fold enrichment”) (protein kinase A; fourth generation) is reported as 147.

For RRASL (sythetic peptide), the “LTFE: In (total fold enrichment)” value (protein kinase A) was 10.6 and the “Rank: position … by fold enrichment” value (protein kinase A; fourth generation) was 20.

With RRFSV the “LTFE: In (total fold enrichment)” value (protein kinase A) was 10.2 and the “Rank: position … by fold enrichment” value (protein kinase A; fourth generation) was 33.

For RRMS, the “LTFE: In (total fold enrichment)” value (protein kinase A) was 3.0 and the “Rank: position … by fold enrichment” value (protein kinase A; fourth generation) was 1846.

In the case of RRMSV, the “LTFE: In (total fold enrichment)” value (protein kinase A) is reported as 9.5 and the “Rank: position … by fold enrichment” value (protein kinase A; fourth generation) is reported as 51.

For RRMTV, the “LTFE: In (total fold enrichment)” value (protein kinase A) was 8.4 and the “Rank: position … by fold enrichment” value (protein kinase A; fourth generation) was 95.

In the case of RRSF, the “LTFE: In (total fold enrichment)” value (protein kinase A) is reported as 6.3 and the “Rank: position … by fold enrichment” value (protein kinase A; fourth generation) is reported as 253.

RRSFL was tested, and the “peptide enrichment in the fourth generation library (result in words)” value (protein kinase A; reads of the 6^4 (1296) genes per peptide summed) was “most highly enriched peptide”.

In the case of RRSFV, the “LTFE: In (total fold enrichment)” value (protein kinase A) is reported as 11.1, the “Rank: position … by fold enrichment” value (protein kinase A; fourth generation) is reported as 7 and the “median enrichment of the genes encoding the peptide” value (protein kinase A; fourth generation, single genes (one codon per amino acid model)) is reported as 175,000 fold.

“catalytic subunit of murine cAMP-activated protein kinase A” showed a Rel. kcat/Km (relative to Kemptide) [1] of 1, a Rel. kcat/Km (relative to Kemptide) (RMSF (SEQ ID NO: 7)) of 0.0028 and a Rel. kcat/Km (relative to Kemptide) (RRMTV (SEQ ID NO: 6)) of 0.031. For the same substance, the Rel. kcat/Km (relative to Kemptide) (RRFSV (SEQ ID NO: 4)) was 4.1, the Rel. kcat/Km (relative to Kemptide) (RRASL (SEQ ID NO: 3)) was 0.27 and the Rel. kcat/Km (relative to Kemptide) (RRSF (SEQ ID NO: 8)) was 0.05. For the same substance, the Rel. kcat/Km (relative to Kemptide) (RRSFV (SEQ ID NO: 2)) was 0.16, the Rel. kcat/Km (relative to Kemptide) (RRMSV (SEQ ID NO: 5)) was 2.2 and the Rel. kcat/Km (relative to Kemptide) (RRMS (SEQ ID NO: 9)) was 0.028.
